Measured values taken from patent publication US9308238B2, “Compositions and methods for modulating EMT and uses thereof” (Whitehead Institute for Biomedical Research, priority 2010, dated 2016).

Legend:
Assay type in all cases: cell-based, human
[1] = tested on: HMLE^24+ cells; test: Mammosphere assay, HMLE^24+ cells after 14 day treatment
Procedure: FIGS. 5A-5H. Concomitant stimulation of Wnt and TGF-beta pathways allows HMLE^24+ cells to enter into a mesenchymal and SC-like state. (FIG. 5A) RT-PCR: N-Cadherin, Zeb1 and Zeb2, L32 was loading control, n=3. Prior RNA isolation, HMLE^24+-shGFP or -shSFRP1 (stable knockdown of SFRP1, FIG. 12A) cells were treated for 3 days with daily doses of indicated factors: anti-DKK1 antibody (10 μg/ml), anti-E-Cadherin antibody (1 μg/ml), TGF-beta 1 (5 ng/ml), Wnt5a (250 ng/ml), (FIG. 5B) Brightfield microscopy: images of control, TGF-beta- and iEMT-cocktail treated HMLE^24+ cells after 14 days of treatment as indicated (see also FIG. 12D). (FIG. 5C) RT-PCR: Zeb1, Zeb2, E-Cadherin and N-Cadherin, L32 was loading control, n=3. After 14 day treatment, cells were expanded in absence of further stimulation for 4 passages. Shown are PBS-treated control HMLE^24+-shGFP and HMLE^24+-shSFRP1 cells, two HMLE^24+-shGFP cultures treated with TGF-beta 1 (TGF-β-a and -b), two HMLE^24+-shSFRP1 cultures treated with the iEMT-cocktail (iEMT-a and -b). […] (FIG. 5G) Lung metastasis: cells expanded for 8 passages after cessation of treatment as described in (C) were transformed with RAS; 1.0×10^5 cells were injected into the mammary fat pads of mice; GFP-labeled metastases on the surface of the lungs were quantified; *control vs. all other groups, p<0.05, n=5 mice/group. […]

[2] = tested on: MSP cells; test: Mammosphere assay, MSP cells
Procedure: FIGS. 3A-3E. Autocrine Signaling controls migration and mammosphere formation.
(§1) Mammosphere and tumorsphere assay. Assays were performed as previously described with modifications (Dontu et al., 2003): 1000 cells/well were seeded in 96-well ultra-low adhesion plates (Corning) in MEGM medium containing 1.3% methylcellulose (Stem Cell Technologies) supplemented with 20 ng/ml EGF, 10 ng/ml bFGF (both Sigma) and B27 (Gibco). Primary spheres were dissociated by trypsinization and replated for secondary sphere formation after a period of 5-7 days.

[3] = tested on: basal MECs; test: Mammosphere assay, primary basal cells after pre-treatment; details: 5 day pre-treatment, assay without further treatment
Source text: FIGS. 7A-7G. Migratory and self-renewal properties in primary MECs: inhibition and induction. (FIG. 7A) Mammosphere Assay: microscopy images of mammospheres and quantification of mammosphere formation by purified basal, luminal and unsorted MEC populations. Primary spheres were allowed to form over a period of 7 days, dissociated and seeded for secondary sphere formation, n(mammosphere)/1000 cells, n=48, (FIG. 7B) Migration Assay: microscopy images of migrated cells in Boyden Chambers and quantification, n=6. (FIG. 7C) Mammosphere Assay: basal cells were seeded into assay after a 5 day pre-treatment with TGF-beta inhibitors A83-01 and […] (SB43, both inhibitors at 10 μM) as well as recombinant SFRP1 (1 μg/ml), n(mammospheres)/1000 cells, n=6. (FIG. 7D) Migration Assay: basal cells were seeded into migration assays treated after 5 day pre-treatment as described in (C), n=24. (FIG. 7E) Mammosphere Assay: luminal cells were seeded into the assay following a 5 day pre-treatment with TGF-beta 1 (5 ng/ml), Wnt5a (250 ng/ml), anti-E-Cadherin antibody (1 μg/ml) plus anti-DKK1 antibody (10 μg/ml), and a cocktail of all factors added together (iEMT-II), n(mammospheres)/1000 cells, n=24. (FIG. 7F) Migration Assay: luminal cells were seeded into Boyden Chambers following a 5 day pre-treatment as described in (E), n=6. […]

[4] = tested on: HTwist and MSP cells; test: Mammosphere assay, HTwist and MSP cells
Procedure: FIGS. 10A-10E. […] (FIG. 10E) Mammosphere Assay: HTwist and MSP were treated daily during mammosphere formation (5 days) with BMP4 (0.5 μg/ml), SB431542 (10 μM) or a combination of both, n(mammospheres)/1000 cells, n=6.
as §1

[5] = added daily for 5 days (FIG. 3D)

Question: For “TGF-beta 1: recombinant TGF-beta 1 protein, used at 5 ng/ml”, which “increase in mammosphere formation vs untreated control cells” value [1] is on record?
Answer: 10 fold

B1: SFRP1: Recombinant human SFRP1 protein (R&D Systems), secreted decoy receptor binding canonical and non-canonical Wnt ligands (protein, UniProt Q8N474 32-314, looked up)
Secreted frizzled-related …: SEYDYVSFQSDIGPYQSGRFYTKPPQCVDIPADLRLCHNVGYKKMVLPNLLEHETMAEVKQQASSWVPLLNKNCHAGTQVFLCSLFAPVCLDRPIYPCRWLCEAVRDSCEPVMQFFGFYWPEMLKCDKFPEGDVCIAMTPPNATEASKPQGTTVCPPCDNELKSEAIIEHLCASEFALRMKIKEVKKENGDKKIVPKKKKPLKLGPIKKKDLKKLVLYLKNGADCPCHQLDNLSHHFLIMGRKVKSQYLLTAIHKWDKKNKEFKNFMKKMKNHECPTFQSVFK
Question: Which “reduction of primary mammosphere number” value [2, 5] does the source give for B1 here?
Answer: 40%

Question: And the “reduction of secondary sphere formation” value ([2]; treated during primary sphere formation only)?
Answer: 80%

Question: What about the “reduction of mammosphere formation” value [3] of the same molecule?
Answer: 80-90%

B2: BMP4: Recombinant BMP4 protein obtained from Stemgent (protein, UniProt P12644 293-408, looked up)
Bone morphogenetic protein 4: SPKHHSQRARKKNKNCRRHSLYVDFSDVGWNDWIVAPPGYQAFYCHGDCPFPLADHLNSTNHAIVQTLVNSVNSSIPKACCVPTELSAISMLYLDEYDKVVLKNYQEMVVEGCGCR
Question: How did the “reduction of primary mammosphere formation” value [4, 5] turn out when B2 was run?
Answer: 60%

Question: What about the “reduction of secondary sphere formation” value ([4]; both cell lines, treated during primary sphere formation only) of the same molecule?
Answer: 90%
